Measurements as given in patent US20240270866A1 (Alector, published 2024).

Key:
[1] = target: T1, human SIRPA overexpressed on CHO cells (human, UniProt P78324 31-504); test: flow, CHO-huSIRPA;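 also: Anti-SIRPA antibodies applied at 1 µg/mL for 1 h on ice, binding read by flow cytometry using a PE-labelled secondary antibody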
T1 construct: also called CHO-huSIRPA
Method: (§1) Initial characterization of anti-SIRPA antibodies of the present disclosure involved determining their ability to bind cell lines overexpressing human or mouse SIRPA. Cells were harvested, plated at 10⁶/ml in a 96 well plate, washed, and incubated in 100 ul PBS containing 1 ug/ml Mab for 1 hour in ice. Cells were then washed twice and incubated in 100 ul PBS containing 5 ug/ml PE-conjugated secondary antibody for 30 minutes in ice. Cells were washed twice in cold PBS and acquired on a BD FACS Canto. Data analysis and calculation of mean fluorescence intensity (MFI) values or % positive cells was performed with FlowJo® (TreeStar) software version 10.0.7.

[2] = target: T2, mouse SIRPA overexpressed on CHO cells (mouse, UniProt P97797 32-513); test: flow, CHO-muSIRPA;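 as to relative MFI: antibody binding measured by flow cytometry: cells stained with 1 ug/ml test antibody for 1 h on ice, detected with PE-labelled secondary antibody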
T2 construct: also called CHO-muSIRPA
T2 sequence: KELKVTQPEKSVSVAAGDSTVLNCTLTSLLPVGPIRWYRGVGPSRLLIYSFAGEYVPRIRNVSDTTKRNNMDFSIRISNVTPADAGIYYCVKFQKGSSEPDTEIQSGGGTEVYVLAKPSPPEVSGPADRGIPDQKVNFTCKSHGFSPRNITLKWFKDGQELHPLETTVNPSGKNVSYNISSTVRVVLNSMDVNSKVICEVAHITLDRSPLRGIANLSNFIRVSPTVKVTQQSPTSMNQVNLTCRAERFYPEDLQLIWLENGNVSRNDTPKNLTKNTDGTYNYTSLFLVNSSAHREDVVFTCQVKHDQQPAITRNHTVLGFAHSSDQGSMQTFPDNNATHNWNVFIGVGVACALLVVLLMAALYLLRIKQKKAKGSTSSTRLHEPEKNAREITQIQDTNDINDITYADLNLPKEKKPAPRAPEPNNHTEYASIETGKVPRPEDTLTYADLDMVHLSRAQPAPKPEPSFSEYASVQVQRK

[3] = target: T2, mouse SIRPA overexpressed on CHO cells; test: flow, CHO-muSIRPA; remark: listed apart in the source;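 as to relative MFI: antibody binding measured by flow cytometry: cells stained with 1 ug/ml test antibody for 1 h on ice, detected with PE-labelled secondary antibody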
Method: as §1

[4] = target: T3, Mouse SIRPA D1 Fc (mouse, UniProt P97797 32-150, limits assumed); test: ForteBio IgG avid;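 also: antibody IgG captured on AHQ biosensors, then 100 nM Fc-fused SIRP antigen applied for 3 min, followed by 3 min buffer dissociation, kinetics fitted to a 1:1 model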
T3 sequence: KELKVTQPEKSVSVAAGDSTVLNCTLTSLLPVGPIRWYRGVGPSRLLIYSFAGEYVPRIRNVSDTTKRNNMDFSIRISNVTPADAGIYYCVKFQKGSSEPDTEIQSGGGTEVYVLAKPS
Method: (§2) Briefly, ForteBio affinity measurements were performed by loading IgGs on-line onto AHQ sensors. Sensors were equilibrated off-line in assay buffer for 30 min and then monitored on-line for 60 seconds for baseline establishment. For avid binding measurement, sensors with loaded IgGs were exposed to 100 nM antigen (human SIRPA or SIRPβ1 Fc fusion) for 3 min, afterwards they were transferred to assay buffer for 3 min for off-rate measurement. Additional avid binding was determined by loading biotinylated SIRPA monomer on SA sensors and exposure to 100 nM IgG in solution. Monovalent binding measurements were obtained by loading human SIRPA or SIRPβ1 Fc fusion antigens to AHQ sensor and followed by exposure to 100 nM anti-SIRPA antibody Fab. Additional monovalent measurements were made by loading biotinylated human SIRPA or SIRPβ1 monomer to SA sensor followed by exposure to 100 nM Fab in solution. Kinetics data were fit using a 1:1 binding model in the data analysis software provided by ForteBio.

[5] = target: Human SIRPb D1 Fc (human, UniProt O00241 30-148, limits assumed); test: ForteBio IgG avid;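 also: antibody IgG captured on AHQ biosensors, then 100 nM Fc-fused SIRP antigen applied for 3 min, followed by 3 min buffer dissociation, kinetics fitted to a 1:1 model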
Chain of Human SIRPb D1 Fc (O00241 30-148 limits assumed): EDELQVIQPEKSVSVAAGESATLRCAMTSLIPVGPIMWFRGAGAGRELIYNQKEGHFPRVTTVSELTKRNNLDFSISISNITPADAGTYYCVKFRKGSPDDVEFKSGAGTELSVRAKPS
Method: as §2

B1: SA-30 (antibody, V domains shown)
VH: QVQLVESGGGVVQPGRSLRLSCAASGFTFSSYGMHWVRQAPGKGLEWVAVIWYDGSNKYYADSVKGRFTISRDNSKNTLYLQMNSLRAEDTAVYYCARDTGSATTMWLYGMDVWGKGTTVTVSS
VL: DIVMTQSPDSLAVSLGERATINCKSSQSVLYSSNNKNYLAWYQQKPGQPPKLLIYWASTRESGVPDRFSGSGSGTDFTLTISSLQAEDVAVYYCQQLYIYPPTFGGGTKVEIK
notes: IgG
In the case of B1, the “relative MFI” value [1] is reported as 41.2 fold over background, the binding result [2] is reported as “no binding (tested: 1 ug/ml)” and the “relative MFI” value [3] is reported as 0.595 fold over background. B1: no binding (tested: 100 nM) [4]; no binding (tested: 100 nM) [5].

B2: SA-9 (antibody, V domains shown)
VH: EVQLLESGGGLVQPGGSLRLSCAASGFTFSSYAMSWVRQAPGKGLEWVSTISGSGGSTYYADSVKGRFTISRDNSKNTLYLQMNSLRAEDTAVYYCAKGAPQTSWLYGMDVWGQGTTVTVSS
VL: DIQMTQSPSSVSASVGDRVTITCRASQGISSWLAWYQQKPGKAPKLLIYAASSLQSGVPSRFSGSGSGTDFTLTISSLQPEDFATYYCQQAYLYPITFGGGTKVENQ
notes: IgG
For B2, the binding result [2] was “no binding (tested: 1 ug/ml)”, the “relative MFI” value [3] was 0.646 fold over background and the binding result [4] was “no binding (tested: 100 nM)”.

B3: SA-54 (antibody, V domains shown)
VH: QLQLQESGPGLVKPSETLSLTCTVSGGSISSSSYYWGWIRQPPGKGLEWIGSIYYSGSTYYNPSLKSRVTISVDTSKNQFSLKLSSVTAADTAVYYCARGSGIAAADTDGLPMDVWGQGTTVTVSS
VL: DIQMTQSPSSVSASVGDRVTITCRASQGISSWLAWYQQKPGKAPKLLIYAASSLQSGVPSRFSGSGSGTDFTLTISSLQPEDFATYYCQQVYLFPITFGGGTKVEIK
notes: IgG
For B3, the binding result [2] was “no binding (tested: 1 ug/ml)”, the “relative MFI” value [3] was 0.461 fold over background and the binding result [4] was “no binding (tested: 100 nM)”.

B4: SA-33 (antibody, V domains shown)
VH: QVQLVQSGAEVKKPGSSVKVSCKASGGTFSSYAISWVRQAPGQGLEWMGGIIPIFGTASYAQKFQGRVTITADESTSTAYMELSSLRSEDTAVYYCARDVGMARGDPYGMDVWGQGTTVTVSS
VL: DIQMTQSPSSVSASVGDRVTITCRASQGISSWLAWYQQKPGKAPKLLISAASSLQSGVPSRFSGSGSGTDFTLTISSLQPEDFATYYCLQAYSFPFTFGGGTKVEIK
notes: IgG
With B4 the binding result [2] was “no binding (tested: 1 ug/ml)”, the “relative MFI” value [3] was 0.708 fold over background and the binding result [4] was “no binding (tested: 100 nM)”.

B5: SA-18 (antibody, V domains shown)
VH: EVQLVESGGGLVQPGGSLRLSCAASGFTFSSYWMSWVRQAPGKGLEWVANIKSDGSEKYYVDSVKGRFTISRDNAKNSLYLQMNSLRAEDTAVYYCARDLSYEPSYPFDIWGQGTMVTVSS
VL: DIQMTQSPSSVSASVGDRVTITCRASQGISSWLAWYQQKPGKAPKLLIYAASSLQSGVPSRFSGSGSGTDFTLTISSLQPEDFATYYCQQALSFPFTFGGGTKVEIK
notes: IgG
B5 was tested, and the “relative MFI” value [1] was 2.13 fold over background, the binding result [2] was “no binding (tested: 1 ug/ml)” and the “relative MFI” value [3] was 0.56 fold over background. B5: no binding (tested: 100 nM) [4]; no binding (tested: 100 nM) [5].

B6: SA-49 (antibody, V domains shown)
VH: EVQLVESGGGLVKPGGSLRLSCAASGFTFSSYSMNWVRQAPGKGLEWVSSISSSSSYIYYADSVKGRFTISRDNAKNSLYLQMNSLRAEDTAVYYCARGAPSMQYSPYYYYGMDVWGQGTTVTVSS
VL: DIQMTQSPSSVSASVGDRVTITCRASQGISSWLAWYQQKPGKAPKLLIYAASSLQSGVPSRFSGSGSGTDFTLTISSLQPEDFATYYCQQVSLYPPTFGGGTKVEIK
notes: IgG
For B6, the binding result [2] was “no binding (tested: 1 ug/ml)”, the “relative MFI” value [3] was 0.53 fold over background and the binding result [4] was “no binding (tested: 100 nM)”.

B7: SA-5 (antibody, V domains shown)
VH: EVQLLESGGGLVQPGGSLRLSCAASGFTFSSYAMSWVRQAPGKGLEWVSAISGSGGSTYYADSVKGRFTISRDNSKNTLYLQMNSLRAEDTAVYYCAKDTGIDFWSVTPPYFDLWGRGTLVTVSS
VL: DIQLTQSPSSVSASVGDRVTITCRASQDISSWLAWYQQKPGKAPKLLIYAASSLQSGVPSRFSGSGSGTDFTLTISSLQPEDFATYYCQQGYIFPRTFGGGTKVEIK
notes: IgG; also called SA-5 (parental)
With B7 the binding result [2] was “no binding (tested: 1 ug/ml)”, the “relative MFI” value [3] was 0.533 fold over background and the binding result [4] was “no binding (tested: 100 nM)”.

B8: SA-46 (antibody, V domains shown)
VH: EVQLLESGGGLVQPGGSLRLSCAASGFTFSTYAMSWVRQAPGKGLEWVSAISGSGGSTYYADSVKGRFTISRDNSKNTLYLQMNSLRAEDTAVYYCARESYDSSLHYYGMDVWGQGTTVTVSS
VL: EIVLTQSPGTLSLSPGERATLSCRASQSVSSSYLAWYQQKPGQAPRLLIYGASSRATGIPDRFSGSGSGTDFTLTISRLEPEDFAVYYCQQHFSLPPTFGGGTKVEIK
notes: IgG
For B8, the binding result [2] was “no binding (tested: 1 ug/ml)”, the “relative MFI” value [3] was 0.476 fold over background and the binding result [4] was “no binding (tested: 100 nM)”.

B9: SA-10 (antibody, V domains shown)
VH: EVQLVESGGGLVQPGRSLRLSCAASGFTFDDYAMHWVRQAPGKGLEWVSGITWNSGSIGYADSVKGRFTISRDNAKNSLYLQMNSLRAEDTALYYCAKGKQYSANYFDYWGQGTLVTVSS
VL: DIQMTQSPSTLSASVGDRVTITCRASQSISSWLAWYQQKPGKAPKLLIYEASSLESGVPSRFSGSGSGTEFTLTISSLQPDDFATYYCQQDNSLPYTFGGGTKVEIK
notes: IgG
With B9 the “relative MFI” value [1] was 4.62 fold over background, the binding result [2] was “no binding (tested: 1 ug/ml)” and the “relative MFI” value [3] was 0.583 fold over background. B9: no binding (tested: 100 nM) [4]; no binding (tested: 100 nM) [5].

B10: SA-55 (antibody, V domains shown)
VH: EVQLVESGGGLVQPGGSLRLSCAASGFTFSSYWMSWVRQAPGKGLEWVANIKQDGSEKYYVDSVKGRFTISRDNAKNSLYLQMNSLRAEDTAVYYCARGSPYYDAYDFDLWGRGTLVTVSS
VL: DIQLTQSPSTLSASVGDRVTITCRASQAISSWLAWYQQKPGKAPKLLIYDASSLESGVPSRFSGSGSGTEFTLTISSLQPDDFATYYCQQYESFPWTFGGGTKVEIK
notes: IgG
In the case of B10, the binding result [2] is reported as “no binding (tested: 1 ug/ml)”, the “relative MFI” value [3] is reported as 0.464 fold over background and the binding result [4] is reported as “no binding (tested: 100 nM)”.

B11: SA-15 (antibody, V domains shown)
VH: QVQLVQSGAEVKKPGSSVKVSCKASGGTFSSYAISWVRQAPGQGLEWMGGIIPIFGTANYAQKFQGRVTITADESTSTAYMELSSLRSEDTAVYYCARDGSYSYATYWGQGTLVTVSS
VL: EIVLTQSPATLSLSPGERATLSCRASQSVSSYLAWYQQKPGQAPRLLIYDASNRATGIPARFSGSGSGTDFTLTISSLEPEDFAVYYCQQPYNFPLTFGGGTKVEIK
notes: IgG
With B11 the “relative MFI” value [1] was 0.768 fold over background, the binding result [2] was “no binding (tested: 1 ug/ml)” and the “relative MFI” value [3] was 0.512 fold over background. For the same binder, the binding result [4] was “no binding (tested: 100 nM)” and the Kd [5] was 28.4 nM.

B12: SA-24 (antibody, V domains shown)
VH: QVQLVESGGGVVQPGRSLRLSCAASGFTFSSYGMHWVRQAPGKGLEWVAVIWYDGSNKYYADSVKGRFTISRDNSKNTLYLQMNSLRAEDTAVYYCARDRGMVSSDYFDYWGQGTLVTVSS
VL: EIVLTQSPATLSLSPGERATLSCRASQSVSSYLAWYQQKPGQAPRLLIYDASNRATGIPARFSGSGSGTDFTLTISSLEPEDFAVYYCQQRLDWPYTFGGGTKVEIK
notes: IgG
In the case of B12, the binding result [2] is reported as “no binding (tested: 1 ug/ml)”, the “relative MFI” value [3] is reported as 0.542 fold over background and the binding result [4] is reported as “no binding (tested: 100 nM)”.

B13: SA-17 (antibody, V domains shown)
VH: QVQLVQSGAEVKKPGSSVKVSCKASGGTFSSYAISWVRQAPGQGLEWMGGIIPIFGTASYAQKFQGRVTITADESTSTAYMELSSLRSEDTAVYYCARDLSAFYVGPFDYWGQGTLVTVSS
VL: EIVMTQSPATLSVSPGERATLSCRASQSVSSSLAWYQQKPGQAPRLLIYGASTRATGIPARFSGSGSGTEFTLTISSLQSEDFAVYYCQQDYIWPLTFGGGTKVEIK
notes: IgG
For B13, the “relative MFI” value [1] was 0.989 fold over background, the binding result [2] was “no binding (tested: 1 ug/ml)” and the “relative MFI” value [3] was 0.476 fold over background. B13: no binding (tested: 100 nM) [4]; no binding (tested: 100 nM) [5].

B14: SA-51 (antibody, V domains shown)
VH: QVQLVQSGAEVKKPGSSVKVSCKASGGTFSSYAISWVRQAPGQGLEWMGSIIPIFGTANYAQKFQGRVTITADESTSTAYMELSSLRSEDTAVYYCARGGYAAGTDYYMGVWGKGTTVTVSS
VL: not shown
notes: IgG
B14: no binding (tested: 1 ug/ml) [2]; no binding (tested: 100 nM) [4].

B15: SA-8 (antibody, V domains shown)
VH: QVQLVESGGGVVQPGRSLRLSCAASGFTFSSYGMHWVRQAPGKGLEWVAVISYDGSNKYYADSVKGRFTISRDNSKNTLYLQMNSLRAEDTAVYYCAKEPRSYWHGYGMDVWGQGTTVTVSS
VL: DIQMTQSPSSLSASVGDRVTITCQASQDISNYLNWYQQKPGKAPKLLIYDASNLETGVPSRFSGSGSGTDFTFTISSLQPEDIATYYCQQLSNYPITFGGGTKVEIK
notes: IgG; also called SA-8 (parental)
For B15, the “relative MFI” value [1] was 57.8 fold over background, the binding result [2] was “no binding (tested: 1 ug/ml)” and the “relative MFI” value [3] was 0.5 fold over background. B15: no binding (tested: 100 nM) [4].

B16: SA-20 (antibody, V domains shown)
VH: QVQLVESGGGVVQPGRSLRLSCAASGFTFSSYGMHWVRQAPGKGLEWVAVISYDGSNKYYADSVKGRFTISRDNSKNTLYLQMNSLRAEDTAVYYCAKEPRSYWHGYGMDVWGQGTTVTVSS
VL: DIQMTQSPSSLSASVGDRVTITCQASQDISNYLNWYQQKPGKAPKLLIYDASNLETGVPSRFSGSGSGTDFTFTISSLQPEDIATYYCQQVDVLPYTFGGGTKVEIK
notes: IgG
In the case of B16, the “relative MFI” value [1] is reported as 5.19 fold over background, the binding result [2] is reported as “no binding (tested: 1 ug/ml)” and the “relative MFI” value [3] is reported as 0.786 fold over background. B16: no binding (tested: 100 nM) [4]; no binding (tested: 100 nM) [5].

B17: SA-11 (antibody, V domains shown)
VH: EVQLVESGGGLVQPGRSLRISCAASGFTFGDYAMHWVRQAPGKGLEWVSGISWNSGSIGYADSVKGRFTISRDNAKNSLYLQMNSLRAEDTALYYCAKTRYGYYSYDFDLWGRGTLVTVSS
VL: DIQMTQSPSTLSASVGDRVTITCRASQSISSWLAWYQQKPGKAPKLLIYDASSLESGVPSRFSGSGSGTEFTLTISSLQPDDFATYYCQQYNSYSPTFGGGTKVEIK
notes: IgG
In the case of B17, the “relative MFI” value [1] is reported as 0.972 fold over background, the binding result [2] is reported as “no binding (tested: 1 ug/ml)” and the “relative MFI” value [3] is reported as 0.851 fold over background. B17: no binding (tested: 100 nM) [4]; no binding (tested: 100 nM) [5].
